Reference: US20130274178A1 (PHILADELPHIA HEALTH AND EDUCATION CORPORATION D B A DREXEL …, published 2013)
Where no end group is shown, it is not given here. [ ]: non-standard residue; d: D form.

B1: UM10 (peptide)
peptide: [Azp‑triazole‑ferrocene]WSEAMM
notes: also called PWSEAMM
B2: UM21 (peptide)
peptide: INNI[Azp‑triazole‑ferrocene]WS-NH2
notes: Rink amide resin; also called INNIPWS
B3: UM22 (peptide)
peptide: RNNI[Azp‑triazole‑ferrocene]WS
notes: also called RNNIPWS
B4: UM23 (peptide)
peptide: ENNI[Azp‑triazole‑ferrocene]WS-NH2
notes: Rink amide resin; also called ENNIPWS
B5: UM27 (peptide)
peptide: KNNI[Azp‑triazole‑ferrocene]WS
notes: also called KNNIPWS
B6: UM28 (peptide)
peptide: FNNI[Azp‑triazole‑ferrocene]WS-NH2
notes: Rink amide resin; also called FNNIPWS
B7: UM31 (peptide)
peptide: NNI[Azp‑triazole‑ferrocene]WS-NH2
notes: Rink amide resin; also called NNIPWS
B8: UM35 (peptide)
peptide: INI[Azp‑triazole‑ferrocene]WS-NH2
notes: Rink amide resin; also called INIPWS
B9: UM12 (peptide)
peptide: RINNI[Azp‑triazole‑ferrocene]W
notes: also called RINNIPW
B10: UM11 (peptide)
peptide: RINNI[Azp‑triazole‑ferrocene]WS-NH2
notes: Rink amide resin
B11: UM13 (peptide)
peptide: EINNI[Azp‑triazole‑ferrocene]WS-NH2
notes: Rink amide resin
B12: UM15 (peptide)
peptide: INNI[Azp‑triazole‑ferrocene]W-NH2
notes: Rink amide resin; also called INNIPW
B13: UM41 (peptide)
peptide: NI[Azp‑triazole‑ferrocene]WS
notes: also called NIPWS
B14: UM24 (peptide)
peptide: XNNIPWS
modifications: not fully specified; residue 1 is citrulline (Cit); proline 5 is a 1,2,3-triazole-modified proline (Azp) 4-substituted with ferrocene
notes: Rink amide resin; also called CitNNIPWS
B15: UM32 (peptide)
peptide: RNI[Azp‑triazole‑ferrocene]WS
notes: also called RNIPWS
B16: UM33 (peptide)
peptide: ENI[Azp‑triazole‑ferrocene]WS
notes: also called ENIPWS
B17: UM16 (peptide)
peptide: RINNI[Azp‑triazole‑ferrocene]
notes: also called RINNIP
B18: UM17 (peptide)
peptide: NNI[Azp‑triazole‑ferrocene]W
notes: also called NNIPW
B19: HNG-156 (peptide)
peptide: RINNIPWSEAMM
modifications: proline 6 is a 1,2,3-triazole-modified proline (from cis-4-azidoproline, Azp) 4-substituted with ferrocene

Each binder was assayed against T1, HIV-1YU2 gp120 (HIV-1 strain YU-2, UniProt P35961 32-498, limits assumed) (assay: ELISA and SPR competition; gp120 binding to sCD4).
T1 construct: domain: gp120

Binder B1 has an IC50 greater than 10 µM.

Each binder was assayed against HIV-1BaL envelope glycoprotein on pseudotyped virus (HIV-1 strain BaL) (assay: cell-based or functional assay).

Point of comparison: B3, “IC50 (µM), pseudotyped HIV-1BaL infection of HOS.CD4.CCR5 cells” value 11 µM. Against it:
- B2 — within 1.5-fold, 7.4 µM
- B4 — 1.9-fold lower, 5.8 µM
- B5 — 2.1-fold higher, 23 µM
- B6 — within 1.5-fold, 13 µM
- B7 — 3.3-fold higher, 36 µM
- B8 — 1.5-fold higher, 17 µM
- B1 — 3.2-fold higher, 35 µM
- B9 — 1.6-fold lower, 6.8 µM
- B10 — 2.8-fold lower, 4 µM
- B11 — 9.2-fold lower, 1.2 µM
- B12 — 1.6-fold lower, 6.9 µM

What follows are binders tested against T1, HIV-1YU2 gp120 (assay: competition ELISA: sCD4 (0.1 µg/ml) with peptide on plate-coated YU-2 gp120; blocked ligand sCD4 (diamonds per the legend)).

In the case of B1, the “IC50 (read off the curve)” value is reported as roughly 2 µM.

Each binder was assayed against T1, HIV-1YU2 gp120 (assay: SPR competition; gp120 binding to mAb 17b; Example 8, Table 9).

B7 showed an IC50 of 16 µM.

The binders below were run against T1, HIV-1YU2 gp120 (assay: ITC; peptide titrated into gp120, 25 °C, PBS pH 7.4; ITC, 25° C. in PBS, pH 7.4).
Experimental: Data was obtained as 25° C. in PBS, pH 7.4.
The solutions contained within the calorimetric cells and injector syringes were prepared in PBS, pH 7.4 and thoroughly degassed to avoid bubble formation in the calorimetric cell. The heat evolved upon each injection of the peptide solution was obtained from the integral of the calorimetric signal. The heat associated with binding of a ligand to the protein in the cell was obtained by subtracting the heat of dilution from the heat of reaction.

In the case of B13, the “-TΔS” value is reported as -1.6 kcal/mol.

Binder B13 has a ΔH of -6.1 kcal/mol.

What follows are binders tested against T1, HIV-1YU2 gp120 (assay: SPR direct binding; YU-2 gp120 immobilized (~3500 RU), peptide as analyte; Example 9; SPR direct binding, peptide over immobilized gp120).

B8 showed a Kd greater than 10 µM.

The binders below were run against HIV-1 gp120 on envelope-pseudotyped luciferase-reporter virus (strain not stated, Example 8) (HIV-1, strain ) (assay: cell-based or functional assay).

Point of comparison: B7, “IC50 (µM), pseudotype virus cell infection assay” value 10 µM. Against it:
- B2 — within 1.5-fold, 7.4 µM
- B4 — 1.5-fold lower, 6.6 µM
- B6 — within 1.5-fold, 11 µM
- B8 — 1.7-fold higher, 17 µM
- B9 — within 1.5-fold, 12.5 µM
- B10 — within 1.5-fold, 10.7 µM
- B11 — 3.1-fold lower, 3.2 µM
- B12 — within 1.5-fold, 7.2 µM
- B14 — 2-fold lower, 4.9 µM

What follows are binders tested against T1, HIV-1YU2 gp120 (assay: SPR direct binding; YU-2 gp120 immobilized (~3500 RU), peptide as analyte).
Experimental: Surface plasmon resonance (SPR) interaction analyses were performed on a Biacore® 3000 optical biosensor (GE). All experiments were carried out at 25° C. using standard PBS, pH 7.4, with 0.005% Surfactant P20.
Regeneration of the surface was achieved by a one 5-second pulse of 10 mM glycine, pH 1.5.

Point of comparison: B6, koff 0.0043 s⁻¹. Against it:
- B3 — 1.6-fold higher, 0.0068 s⁻¹
- B4 — within 1.5-fold, 0.0034 s⁻¹
- B5 — 2-fold higher, 0.0088 s⁻¹
- B15 — within 1.5-fold, 0.0031 s⁻¹
- B16 — 2.4-fold lower, 0.0018 s⁻¹

Point of comparison: B3, kon 510000 M⁻¹ s⁻¹. Against it:
- B4 — 3.9-fold lower, 130000 M⁻¹ s⁻¹
- B5 — within 1.5-fold, 590000 M⁻¹ s⁻¹
- B6 — within 1.5-fold, 380000 M⁻¹ s⁻¹
- B15 — 150-fold lower, 3300 M⁻¹ s⁻¹
- B16 — 460-fold lower, 1100 M⁻¹ s⁻¹

Work on B17 yielded a Kd greater than 10 µM.

Each binder was assayed against T1, HIV-1YU2 gp120 (assay: competition ELISA: mAb 17b (0.1 µg/ml) with peptide on plate-coated YU-2 gp120; blocked ligand mAb 17b (the UM10 curve that is not diamonds)).

B1 was tested, and the “IC50 (read off the curve)” value was roughly 0.2 µM.

Each binder was assayed against T1, HIV-1YU2 gp120 (assay: SPR direct binding, YU2 gp120 (Example 8); Example 8 determination).

In the case of B14, the Kd is reported as 0.021 µM.

Each binder was assayed against T1, HIV-1YU2 gp120 (assay: SPR competition; gp120 binding to CD4).
Experimental: (§1) All surface plasmon resonance experiments (SPR) were performed on a BIA3000 optical biosensor (Biocore, Inc., Uppsala, Sweden). […] The indicated analytes were passed over the surfaces at a flow rate of 50 μL/minute, with 2.5 minute association phase and 2.5 minute dissociation phase.

Point of comparison: B14, IC50 0.081 µM. Against it:
- B2 — within 1.5-fold, 0.086 µM
- B3 — 1.5-fold higher, 0.123 µM
- B4 — within 1.5-fold, 0.088 µM
- B5 — 1.6-fold higher, 0.128 µM
- B6 — within 1.5-fold, 0.105 µM
- B7 — 62-fold higher, 5 µM
- B9 — 1.5-fold higher, 0.124 µM
- B11 — within 1.5-fold, 0.079 µM

What follows are binders tested against T1, HIV-1YU2 gp120 (assay: ITC; peptide titrated into gp120, 25 °C, PBS pH 7.4).
Experimental: The solutions contained within the calorimetric cells and injector syringes were prepared in PBS, pH 7.4 and thoroughly degassed to avoid bubble formation in the calorimetric cell. The heat evolved upon each injection of the peptide solution was obtained from the integral of the calorimetric signal. The heat associated with binding of a ligand to the protein in the cell was obtained by subtracting the heat of dilution from the heat of reaction. Heats of dilution due to mismatch between the syringe and cell solutions were negligible in all experiments.

Point of comparison: B12, “-TΔS” value 6.6 kcal/mol. Against it:
- B7 — lower, 4.1 kcal/mol
- B9 — higher, 9.9 kcal/mol
- B14 — lower, 6.3 kcal/mol
- B18 — lower, 3.3 kcal/mol

Point of comparison: B7, ΔH -13.8 kcal/mol. Against it:
- B9 — lower, -19.7 kcal/mol
- B12 — lower, -16.6 kcal/mol
- B14 — lower, -16.7 kcal/mol
- B18 — higher, -13.2 kcal/mol

These binders were tested against T2, soluble four domain CD4 (sCD4) (UniProt P01730 26-394, limits assumed) (assay: SPR, immobilized sCD4).
T2 construct: domain: soluble four domain CD4; also called soluble CD4

B19: no binding (tested: 10 to 600 nM).

The binders below were run against T1, HIV-1YU2 gp120 (assay: competition ELISA: IgG b12 with UM17 on immobilized YU-2 gp120; blocked ligand b12).

For B18, the “IC50 (read off the curve)” value was roughly 3 µM.

The binders below were run against T3, HIV-1 92UG037-08 gp120 (HIV-1 strain 92UG037-08) (assay: SPR direct binding; gp120 immobilized, peptide as analyte).
T3 construct: domain: gp120; also called 92UG037-08 (A); 92Ugo37-08 gp120
Experimental: as §1
Data analysis was performed using BIAEvaluation® 4.0 software (Biacore Inc., NJ). The responses of a buffer injection and responses from the control surface to which the mAb 2B6R was immobilized, were subtracted to account for nonspecific binding. Experimental data were fitted to a simple 1:1 Langmuir binding model with a parameter included for mass transport. The average kinetic parameters (association [kₐ] and dissociation [kd] rates) generated from a minimum of four datasets were used to define equilibrium association (KA) and dissociation constants (KD).

B19 showed a Kd of 0.0163 µM.

What follows are binders tested against T1, HIV-1YU2 gp120 (assay: SPR competition; gp120 binding to mAb 17b).
Experimental: as §1

Point of comparison: B5, IC50 0.197 µM. Against it:
- B3 — within 1.5-fold, 0.181 µM
- B4 — within 1.5-fold, 0.165 µM
- B6 — within 1.5-fold, 0.174 µM
- B9 — within 1.5-fold, 0.218 µM
- B10 — within 1.5-fold, 0.168 µM

These binders were tested against T2, soluble four domain CD4 (sCD4) (assay: SPR, sCD4 surface).

B1: no binding.
B9: no binding.
